Assay results reported in article PMC9555226, “Microreactor equipped with naturally acid-resistant histidine ammonia lyase from an extremophile” (Materials advances, 2022).

Substrate: N[C@@H](Cc1c[nH]cn1)C(=O)O
Assay: purified protein
Assay type: biochemical, Thermoplasma acidophilum
Conditions: 37 °C, pH 7.4, buffer A, free enzyme

B1: TaHAL (Thermoplasma acidophilum histidine ammonia lyase) (Thermoplasma acidophilum DSM 1728) (protein)
chain: MIEIDGRSLRVEDVYAVAVEYDRVSISDDTLKAVEEKHEAFLKLINSGKTVYGVNTGFGSLLNVHIERDQEIELQKNLIRSHSSGVGDYLENRYVRAIMAVRLNSLAAGYSAVSADLLNMMVEMLNRDVIPAVPKYGSVGASGDLAPLAHIGLAMMGEGKAFFEGRLMDSARALEKAGLKPYQFKEKEGVALINGTSFMSGILSIAVMDAHDILENAIRSALLSFEALGGTSKAFTPWILGARPHLGQVAIGNRFREYLTGSDIVKRADSVKVQDAYTLRCIPQVYGSVADVIDYVENVLSVEINSATDNPLFNGEEVVSGGNFHGEPVALAADFLAIALTDLGNMVERRIARLVDTNLSGLPPFLTPDSGLNSGYMIPQYTAAALCNRNKVLAYPSSADTIPTSANQEDHVSMGATGSLKLLEIIDNVRYIIAIEYLLGSQALEFTDKGMSPSTRKIYEKIREKVEKLDHDRPPSFDIETIRKMMDKKEFISALP
notes: E. coli BL21(DE3), codon-optimized gene, pET28a; N-terminal His-SUMO tag cleaved with ULP1; ~55 kDa; homotetramer with MIO
B1 showed a Km of 0.045 ± 0.02 mM, a kcat of 1.01 ± 0.08 s⁻¹ and a kcat/Km of 22400 ± 4000 M⁻¹ s⁻¹.
